Results published in patent publication US20210238276A1 (INTEGRAL MOLECULAR, published 2021).

T1: hsGLUT4 L247A (human, UniProt P14672 1-509)
T1 sequence: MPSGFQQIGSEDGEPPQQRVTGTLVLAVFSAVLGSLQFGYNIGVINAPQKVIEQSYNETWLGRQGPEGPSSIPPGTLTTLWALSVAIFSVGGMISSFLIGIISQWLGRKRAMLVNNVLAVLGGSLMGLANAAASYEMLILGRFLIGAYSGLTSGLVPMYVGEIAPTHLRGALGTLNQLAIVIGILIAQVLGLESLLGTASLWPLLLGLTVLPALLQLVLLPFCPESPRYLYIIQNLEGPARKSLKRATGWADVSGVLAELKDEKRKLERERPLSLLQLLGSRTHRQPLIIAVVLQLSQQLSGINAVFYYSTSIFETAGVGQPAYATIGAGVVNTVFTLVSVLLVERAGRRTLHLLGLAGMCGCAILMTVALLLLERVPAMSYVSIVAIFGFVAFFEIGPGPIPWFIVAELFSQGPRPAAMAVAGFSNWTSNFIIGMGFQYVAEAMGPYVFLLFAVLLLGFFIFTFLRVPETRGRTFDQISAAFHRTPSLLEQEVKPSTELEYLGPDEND

T2: hsGLUT4 L260A (human, UniProt P14672 1-509)
T2 sequence: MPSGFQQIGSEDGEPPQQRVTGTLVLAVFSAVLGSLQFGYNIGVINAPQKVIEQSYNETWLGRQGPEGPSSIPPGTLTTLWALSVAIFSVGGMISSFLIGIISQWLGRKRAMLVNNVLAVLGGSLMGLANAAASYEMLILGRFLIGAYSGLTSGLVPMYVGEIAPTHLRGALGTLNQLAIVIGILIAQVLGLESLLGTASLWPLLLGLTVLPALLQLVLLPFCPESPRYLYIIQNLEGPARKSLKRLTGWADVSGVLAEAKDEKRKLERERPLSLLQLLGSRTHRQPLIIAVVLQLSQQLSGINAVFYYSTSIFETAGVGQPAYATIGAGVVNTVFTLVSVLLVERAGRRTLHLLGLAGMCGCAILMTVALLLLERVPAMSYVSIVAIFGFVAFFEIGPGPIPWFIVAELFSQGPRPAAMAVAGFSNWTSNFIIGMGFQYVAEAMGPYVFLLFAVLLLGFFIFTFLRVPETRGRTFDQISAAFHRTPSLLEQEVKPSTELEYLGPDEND

T3: hsGLUT4 N304A (human, UniProt P14672 1-509)
T3 sequence: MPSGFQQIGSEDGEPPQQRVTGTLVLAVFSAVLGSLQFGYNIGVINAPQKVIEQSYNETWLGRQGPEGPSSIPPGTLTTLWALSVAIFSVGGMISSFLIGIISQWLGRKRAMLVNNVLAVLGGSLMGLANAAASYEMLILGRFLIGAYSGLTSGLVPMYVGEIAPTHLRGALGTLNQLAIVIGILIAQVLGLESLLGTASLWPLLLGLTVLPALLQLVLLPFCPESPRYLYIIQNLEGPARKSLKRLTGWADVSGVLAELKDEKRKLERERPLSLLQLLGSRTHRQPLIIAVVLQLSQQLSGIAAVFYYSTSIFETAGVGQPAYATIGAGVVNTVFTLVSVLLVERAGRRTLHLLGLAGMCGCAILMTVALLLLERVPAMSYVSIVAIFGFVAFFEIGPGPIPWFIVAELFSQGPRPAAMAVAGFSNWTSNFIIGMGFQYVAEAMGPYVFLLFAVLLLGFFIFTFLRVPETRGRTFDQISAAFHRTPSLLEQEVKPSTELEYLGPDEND

T4: hsGLUT4 N508A (human, UniProt P14672 1-509)
T4 sequence: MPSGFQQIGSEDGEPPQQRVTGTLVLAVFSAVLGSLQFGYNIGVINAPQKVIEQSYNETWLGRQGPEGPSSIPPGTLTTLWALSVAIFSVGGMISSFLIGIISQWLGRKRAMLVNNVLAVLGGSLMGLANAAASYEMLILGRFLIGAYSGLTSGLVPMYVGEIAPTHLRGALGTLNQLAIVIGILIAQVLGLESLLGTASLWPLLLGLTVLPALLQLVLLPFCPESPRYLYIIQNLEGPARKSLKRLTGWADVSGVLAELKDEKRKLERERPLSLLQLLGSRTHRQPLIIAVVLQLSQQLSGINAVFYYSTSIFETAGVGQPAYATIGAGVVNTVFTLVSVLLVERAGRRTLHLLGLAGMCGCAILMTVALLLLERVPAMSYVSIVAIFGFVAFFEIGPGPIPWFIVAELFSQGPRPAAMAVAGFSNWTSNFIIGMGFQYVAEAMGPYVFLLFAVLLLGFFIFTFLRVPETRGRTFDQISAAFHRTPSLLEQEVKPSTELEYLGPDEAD


Assays:
Assay in all cases: flow cytometry, alanine-scan library in HEK-293T
hsGLUT4 L247A = molecular target: T1, hsGLUT4 L247A
How it was run: (§1)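 HEK-293T cells expressing individual GLUT4 alanine mutants were stained 48 h post-transfection with anti-GLUT4 scFv MAbs (2 μg/ml), then biotinylated secondary and streptavidin-PerCP, and read by high-throughput flow cytometry. Where used, cytochalasin B (10 uM final) was given for 30 min before and during primary antibody staining.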

hsGLUT4 L260A = molecular target: T2, hsGLUT4 L260A
How it was run: as §1

hsGLUT4 N304A = molecular target: T3, hsGLUT4 N304A
How it was run: as §1

hsGLUT4 N508A = molecular target: T4, hsGLUT4 N508A
How it was run: as §1

% of binding to wild type GLUT4 (hsGLUT4 N304A) [%] | Molecule | % of binding to wild type GLUT4 (hsGLUT4 L247A) [%] | % of binding to wild type GLUT4 (hsGLUT4 L260A) [%] | % of binding to wild type GLUT4 (hsGLUT4 N508A) [%]
79 | 1F8 (antibody) | 95 | 98 | 21
11 | AB105 (Fc fusion, Bivalent scFv-Fc; also called MAb AB105; not shown: Fc fragment of human IgG1, cloned in frame with the scFv) scFv: ALTQPSSVSANPGETVEITCSGDSSYYGWYQQKSPGSAPVTVIYANTNRPSDIPSRFSGSASGSTATLTITGVQAEDEAVYYCGSADSTYAGIFGAGTTLTVLGQSSRSSGGGGSSGGGGSAVTLDESGGGLQTPGGALSLICKASGFTFSSYTMNWVRQAPGKGLEWVGVISNSGRTTNYGAAVQGRATISRDNGQSTVRLQLNNLRAEDTGTYYCAKSSASASCAWWAGRSYPCSANRIDAWGHGTEVIVSS | – | – | –
145 | AB101 (scFv, Chicken-derived clone used as a control; the four lead clones were tested as scFv-human IgG1 Fc; also called MAb AB101) scFv: ALTQPSSVSANPGETVKITCSGSSNSYGWYQQKSPGSAPVTVIYYNDKRPSDIPSRFSGSKSDSTHTLTITGVRAEDEAVYFCGSYDSTYVGIFGAGTTLTVLGQSSRSSGGGGSSGGGGSAVTLDESGGGLQTPGGTLSLVCKASGFTFSSNAMGWVRQAPGKGLEWVAGISSDGRYTKYGSAVKGRATISRDNGQSTVRLQLNNLRAEDTGTYFCAKAFGNNYRRIYAGQIDAWGHGTEVIVSS | 111 | 112 | 7

Molecule | % of binding to wild type GLUT4 (hsGLUT4 N304A) [%] | % of binding to wild type GLUT4 (hsGLUT4 L247A) [%] | % of binding to wild type GLUT4 (hsGLUT4 L260A) [%] | % of binding to wild type GLUT4 (hsGLUT4 N508A) [%]
AB111 (Fc fusion, Bivalent scFv-Fc; also called MAb AB111; not shown: Fc fragment of human IgG1, cloned in frame with the scFv) scFv: ALTQPSSVSANPGETVKITCSGSGSWYGWFQQKSPGSAPVTVIYSNDKRPSDIPSRFSGSKSGSTSTLTITGVQVEDEAVYYCGNWDIFGAGTTLTVLGQSSRSSGGGGSSGGGGSAVTLDESGGGLQTPGGALSLVCKASGFTFSSHGMGWVRQAPGKGLEWVASISTGRYTFYAPAVKGRATISRDNGQSTVRLQLNNLRAEDTATYYCTKCAGLNGCGGGEIDAWGHGTEVIVSS | 125 | 99 | 130 | 193
AB108 (Fc fusion, Bivalent scFv-Fc; also called MAb AB108; not shown: Fc fragment of human IgG1, cloned in frame with the scFv) scFv: ALTQPSSVSANLGGTVKITCSGSSGSYGWYQQKAPGSAPVTLIYRNDKRPSDIPSRFSGSESGSTGTLTITGVQAEDEAVYFCGGYDSSAGYAAFGAGTTLTVLGQSSRSSGGGGSSGGGGSAVTLDESGGGLQTPGGALSLVCKASGFTFSSHGMGWVRQAPGKGLEWVGSISTGRYTFYAPAVKGRATISRDNGQSTLRLQLNNLRAEDTGTYYCTKCAGLNGCGGGEIDAWGHGTEVIVSS | 72 | 110 | 108 | 89
